Laboratory results published in article PMC8755724, “Single particle cryo-EM structure of the outer hair cell motor protein prestin” (Nature Communications, 2022).

Target: the molecule itself
Experiment: cryo-EM structure; single-particle cryo-EM of detergent-solubilised prestin (extracted in digitonin, purified in GDN), about 2 mg/ml, 10 mM HEPES, 200 mM NaCl, 0.02% GDN, pH 7.4; C2 symmetry imposed; 3.6 Å

B1: full-length prestin from gerbil (Meriones unguiculatus) tagged at its C terminus with enhanced yellow fluorescent protein (EYFP) (natural protein, UniProt Q9JKQ2 1-744, looked up)
chain: MDHAEENEIPVATQKYHVERPIFSHPVLQERLHVKDKVSESIGDKLKQAFTCTPKKIRNIIYMFLPITKWLPAYKFKEYVLGDLVSGISTGVLQLPQGLAFAMLAAVPPVFGLYSSFYPVIMYCFFGTSRHISIGPFAVISLMIGGVAVRLVPDDIVIPGGVNATNGTEARDALRVKVAMSVTLLSGIIQFCLGVCRFGFVAIYLTEPLVRGFTTAAAVHVFTSMLKYLFGVKTKRYSGIFSVVYSTVAVLQNVKNLNVCSLGVGLMVFGLLLGGKEFNERFKEKLPAPIPLEFFAVVMGTGISAGFNLHESYSVDVVGTLPLGLLPPANPDTSLFHLVYVDAIAIAIVGFSVTISMAKTLANKHGYQVDGNQELIALGICNSIGSLFQTFSISCSLSRSLVQEGTGGKTQLAGCLASLMILLVILATGFLFESLPQAVLSAIVIVNLKGMFMQFSDLPFFWRTSKIELTIWLTTFVSSLFLGLDYGLITAVIIALLTVIYRTQSPSYKVLGQLPDTDVYIDIDAYEEVKEIPGIKIFQINAPIYYANSDLYSNALKRKTGVNPALIMGARRKAMRKYAKEVGNANIANAAVVKVDGEVDGENATKPEEEDDEVKYPPIVIKTTFPEELQRFMPQTENVHTIILDFTQVNFIDSVGVKTLAVMVKEYGDVGIYVYLAGCSPQVVNDLTRNRFFENPALKELLFHSIHDAVLGSHVREAMAEQEASAPPPQDDMEPNATPTTPEA
notes: prestin (Slc26a5), gerbil (Meriones unguiculatus), GenBank AF230376, full-length cDNA; the model is built to residue A726; also called Slc26a5; prestin-YFP; not shown: EYFP, C-terminal, kept
stoichiometry N: 2
